The results in this text go back to patent US20110263827A1 (AbbVie / Abbott, published 2011).

Test [1] has as its target T1, EGFR (UniProt P00533 25-645, limits assumed, biotinylated).
T1 construct: ELISA antigen; construct not described
The experiment in a line: direct bind ELISA, C-term VD.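 Further: ELISA with antibody or DVD-Ig preparations applied to target antigen-coated plates for 1 h at room temperature, TMB colour development, absorbance read at 450 nm.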 For orientation: In an ELISA, binding on a coated surface is turned into a signal by an enzyme label.

In the next test the target is T2, ErbB3 (UniProt P21860 20-643, limits assumed, biotinylated).
T2 construct: ELISA antigen
As to the kind of experiment: direct bind ELISA, N-term VD.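 Further: antibody or DVD-Ig preparations bound to immobilized target antigen on ELISA plates, 1 h at room temperature, TMB detection read as absorbance at 450 nm.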

In another test the target is T3, VEGF (UniProt P15692-4 27-191, limits assumed, biotinylated).
T3 construct: ELISA antigen
The experiment in a line: direct bind ELISA, C-term VD.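 Further: ELISA with antibody or DVD-Ig preparations applied to target antigen-coated plates for 1 h at room temperature, TMB colour development, absorbance read at 450 nm.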

Test [2] concerns the target T1, EGFR. As to the kind of experiment: direct bind ELISA, N-term VD.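 Further: antibody or DVD-Ig preparations bound to immobilized target antigen on ELISA plates, 1 h at room temperature, TMB detection read as absorbance at 450 nm.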

B1: DVD832 (bispecific antibody)
VH: EVQLVESGGGLVQPGGSLRLSCAASGFTFSIYSMNWVRQAPGKGLEWVSYISSSSSTIYYADSVKGRFTISRDNAKNSLYLQMNSLRDEDTAVYYCARDRGDFDAFDIWGQGTMVTVSSASTKGPQVQLQESGPGLVKPSQTLSLTCTVSGYSISSDFAWNWIRQPPGKGLEWMGYISYSGNTRYQPSLKSRITISRDTSKNQFFLKLNSVTAADTATYYCVTAGRGFPYWGQGTLVTVSS
VL: DIQMTQSPSSLSASVGDRVTITCQASQDITNYLNWYQQKPGKAPKLLIYDASNLETGVPSRFSGSGSGTDFTFTISSLQPEDIATYNCQQCENFPITFGQGTRLEIKRTVAAPSVFIFPPDIQMTQSPSSMSVSVGDRVTITCHSSQDINSNIGWLQQKPGKSFKGLIYHGTNLDDGVPSRFSGSGSGTDYTLTISSLQPEDFATYYCVQYAQFPWTFGGGTKLEIKR
notes: DVD-Ig; HC S, LC L; variable parts only
With B1, the EC50 (usually the midpoint of the concentration-response curve) turned out to be 62.4 nM in the test with EGFR [1] and 1.19 nM with ErbB3.

B2: DVD800 (bispecific antibody)
VH: QVQLQQWGAGLLKPSETLSLTCAVYGGSFSGYYWSWIRQPPGKGLEWIGEINHSGSTNYNPSLKSRVTISVETSKNQFSLKLSSVTAADTAVYYCARDKWTWYFDLWGRGTLVTVSSASTKGPSVFPLAPQVQLQESGPGLVKPSQTLSLTCTVSGYSISSDFAWNWIRQPPGKGLEWMGYISYSGNTRYQPSLKSRITISRDTSKNQFFLKLNSVTAADTATYYCVTAGRGFPYWGQGTLVTVSS
VL: DIEMTQSPDSLAVSLGERATINCRSSQSVLYSSSNRNYLAWYQQNPGQPPKLLIYWASTRESGVPDRFSGSGSGTDFTLTISSLQAEDVAVYYCQQYYSTPRTFGQGTKVEIKRTVAAPDIQMTQSPSSMSVSVGDRVTITCHSSQDINSNIGWLQQKPGKSFKGLIYHGTNLDDGVPSRFSGSGSGTDYTLTISSLQPEDFATYYCVQYAQFPWTFGGGTKLEIKR
notes: DVD-Ig; HC L, LC S; variable parts only
On to B2, for which the 50% effective concentration (EC50) with EGFR [1] was 67.3 nM; with ErbB3, 2.06 nM.

B3: DVD779 (bispecific antibody)
VH: QVQLQESGPGLVKPSQTLSLTCTVSGYSISSDFAWNWIRQPPGKGLEWMGYISYSGNTRYQPSLKSRITISRDTSKNQFFLKLNSVTAADTATYYCVTAGRGFPYWGQGTLVTVSSASTKGPSVFPLAPEVQLVESGGGLVQPGGSLRLSCAASGYTFTNYGMNWVRQAPGKGLEWVGWINTYTGEPTYAADFKRRFTFSLDTSKSTAYLQMNSLRAEDTAVYYCAKYPHYYGSSHWYFDVWGQGTLVTVSS
VL: DIQMTQSPSSMSVSVGDRVTITCHSSQDINSNIGWLQQKPGKSFKGLIYHGTNLDDGVPSRFSGSGSGTDYTLTISSLQPEDFATYYCVQYAQFPWTFGGGTKLEIKRTVAAPSVFIFPPDIQMTQSPSSLSASVGDRVTITCSASQDISNYLNWYQQKPGKAPKVLIYFTSSLHSGVPSRFSGSGSGTDFTLTISSLQPEDFATYYCQQYSTVPWTFGQGTKVEIKR
notes: DVD-Ig; HC L, LC L; variable parts only
With B3, the EC50 with VEGF turned out to be 0.24 nM; in the test with EGFR [2], 10.6 nM.

B4: DVD789 (bispecific antibody)
VH: QVQLQESGPGLVKPSQTLSLTCTVSGYSISSDFAWNWIRQPPGKGLEWMGYISYSGNTRYQPSLKSRITISRDTSKNQFFLKLNSVTAADTATYYCVTAGRGFPYWGQGTLVTVSSASTKGPSVFPLAPEVQLVESGGGLVQPGGSLRLSCAASGFTISDYWIHWVRQAPGKGLEWVAGITPAGGYTYYADSVKGRFTISADTSKNTAYLQMNSLRAEDTAVYYCARFVFFLPYAMDYWGQGTLVTVSS
VL: DIQMTQSPSSMSVSVGDRVTITCHSSQDINSNIGWLQQKPGKSFKGLIYHGTNLDDGVPSRFSGSGSGTDYTLTISSLQPEDFATYYCVQYAQFPWTFGGGTKLEIKRTVAAPSVFIFPPDIQMTQSPSSLSASVGDRVTITCRASQDVSTAVAWYQQKPGKAPKLLIYSASFLYSGVPSRFSGSGSGTDFTLTISSLQPEDFATYYCQQSYTTPPTFGQGTKVEIKR
notes: as for B3
With B4, the results for the EC50 in the test with VEGF and with EGFR [2] were 46 nM and 14.6 nM, respectively.

B5: DVD791 (bispecific antibody)
VH: QVQLQESGPGLVKPSQTLSLTCTVSGYSISSDFAWNWIRQPPGKGLEWMGYISYSGNTRYQPSLKSRITISRDTSKNQFFLKLNSVTAADTATYYCVTAGRGFPYWGQGTLVTVSSASTKGPSVFPLAPEVQLVESGGGLVQPGGSLRLSCAASGFTINASWIHWVRQAPGKGLEWVGAIYPYSGYTNYADSVKGRFTISADTSKNTAYLQMNSLRAEDTAVYYCARWGHSTSPWAMDYWGQGTLVTVSS
VL: DIQMTQSPSSMSVSVGDRVTITCHSSQDINSNIGWLQQKPGKSFKGLIYHGTNLDDGVPSRFSGSGSGTDYTLTISSLQPEDFATYYCVQYAQFPWTFGGGTKLEIKRTVAAPSVFIFPPDIQMTQSPSSLSASVGDRVTITCRASQVIRRSLAWYQQKPGKAPKLLIYAASNLASGVPSRFSGSGSGTDFTLTISSLQPEDFATYYCQQSNTSPLTFGQGTKVEIKR
notes: as for B3
For B5, the figures for the EC50 with VEGF and with EGFR [2] were 11.6 nM and 8.24 nM, respectively.

B6: DVD830 (bispecific antibody)
VH: QVQLQQWGAGLLKPSETLSLTCAVYGGSFSGYYWSWIRQPPGKGLEWIGEINHSGSTNYNPSLKSRVTISVETSKNQFSLKLSSVTAADTAVYYCARDKWTWYFDLWGRGTLVTVSSASTKGPQVQLQESGPGLVKPSQTLSLTCTVSGYSISSDFAWNWIRQPPGKGLEWMGYISYSGNTRYQPSLKSRITISRDTSKNQFFLKLNSVTAADTATYYCVTAGRGFPYWGQGTLVTVSS
VL: DIEMTQSPDSLAVSLGERATINCRSSQSVLYSSSNRNYLAWYQQNPGQPPKLLIYWASTRESGVPDRFSGSGSGTDFTLTISSLQAEDVAVYYCQQYYSTPRTFGQGTKVEIKRTVAAPSVFIFPPDIQMTQSPSSMSVSVGDRVTITCHSSQDINSNIGWLQQKPGKSFKGLIYHGTNLDDGVPSRFSGSGSGTDYTLTISSLQPEDFATYYCVQYAQFPWTFGGGTKLEIKR
notes: as for B1
With B6, the figures for the EC50 with EGFR [1] and with ErbB3 were 42.7 nM and 1.43 nM, respectively.

B7: DVD848 (bispecific antibody)
VH: EVQLLESGGGLVQPGGSLRLSCAASGFTFSHYVMAWVRQAPGKGLEWVSSISSSGGWTLYADSVKGRFTISRDNSKNTLYLQMNSLRAEDTAVYYCTRGLKMATIFDYWGQGTLVTVSSASTKGPQVQLQESGPGLVKPSQTLSLTCTVSGYSISSDFAWNWIRQPPGKGLEWMGYISYSGNTRYQPSLKSRITISRDTSKNQFFLKLNSVTAADTATYYCVTAGRGFPYWGQGTLVTVSS
VL: QSALTQPASVSGSPGQSITISCTGTSSDVGSYNVVSWYQQHPGKAPKLIIYEVSQRPSGVSNRFSGSKSGNTASLTISGLQTEDEADYYCCSYAGSSIFVIFGGGTKVTVLGQPKAAPSVTLFPPDIQMTQSPSSMSVSVGDRVTITCHSSQDINSNIGWLQQKPGKSFKGLIYHGTNLDDGVPSRFSGSGSGTDYTLTISSLQPEDFATYYCVQYAQFPWTFGGGTKLEIKR
notes: as for B1
Take B7: the EC50 with EGFR [1] stood at 16.7 nM; with ErbB3, 3.23 nM.

B8: DVD818 (bispecific antibody)
VH: EVQLLESGGGLVQPGGSLRLSCAASGFTFSHYVMAWVRQAPGKGLEWVSSISSSGGWTLYADSVKGRFTISRDNSKNTLYLQMNSLRAEDTAVYYCTRGLKMATIFDYWGQGTLVTVSSASTKGPSVFPLAPQVQLQESGPGLVKPSQTLSLTCTVSGYSISSDFAWNWIRQPPGKGLEWMGYISYSGNTRYQPSLKSRITISRDTSKNQFFLKLNSVTAADTATYYCVTAGRGFPYWGQGTLVTVSS
VL: QSALTQPASVSGSPGQSITISCTGTSSDVGSYNVVSWYQQHPGKAPKLIIYEVSQRPSGVSNRFSGSKSGNTASLTISGLQTEDEADYYCCSYAGSSIFVIFGGGTKVTVLGQPKAAPDIQMTQSPSSMSVSVGDRVTITCHSSQDINSNIGWLQQKPGKSFKGLIYHGTNLDDGVPSRFSGSGSGTDYTLTISSLQPEDFATYYCVQYAQFPWTFGGGTKLEIKR
notes: as for B2
Regarding B8, the EC50 in the test with EGFR [1] amounted to 19.3 nM; in the test with ErbB3 it was 3.32 nM.

B9: DVD756 (bispecific antibody)
VH: EVQLLESGGGLVQPGGSLRLSCAASGFTFSHYVMAWVRQAPGKGLEWVSSISSSGGWTLYADSVKGRFTISRDNSKNTLYLQMNSLRAEDTAVYYCTRGLKMATIFDYWGQGTLVTVSSASTKGPQVQLQESGPGLVKPSQTLSLTCTVSGYSISSDFAWNWIRQPPGKGLEWMGYISYSGNTRYQPSLKSRITISRDTSKNQFFLKLNSVTAADTATYYCVTAGRGFPYWGQGTLVTVSS
VL: QSALTQPASVSGSPGQSITISCTGTSSDVGSYNVVSWYQQHPGKAPKLIIYEVSQRPSGVSNRFSGSKSGNTASLTISGLQTEDEADYYCCSYAGSSIFVIFGGGTKVTVLGQPKAAPDIQMTQSPSSMSVSVGDRVTITCHSSQDINSNIGWLQQKPGKSFKGLIYHGTNLDDGVPSRFSGSGSGTDYTLTISSLQPEDFATYYCVQYAQFPWTFGGGTKLEIKR
notes: DVD-Ig; HC S, LC S; variable parts only
In the case of B9, the EC50 with EGFR [1] was found to be 48.9 nM; in the test with ErbB3, 3.94 nM.

B10: DVD802 (bispecific antibody)
VH: EVQLVESGGGLVQPGGSLRLSCAASGFTFSIYSMNWVRQAPGKGLEWVSYISSSSSTIYYADSVKGRFTISRDNAKNSLYLQMNSLRDEDTAVYYCARDRGDFDAFDIWGQGTMVTVSSASTKGPSVFPLAPQVQLQESGPGLVKPSQTLSLTCTVSGYSISSDFAWNWIRQPPGKGLEWMGYISYSGNTRYQPSLKSRITISRDTSKNQFFLKLNSVTAADTATYYCVTAGRGFPYWGQGTLVTVSS
VL: DIQMTQSPSSLSASVGDRVTITCQASQDITNYLNWYQQKPGKAPKLLIYDASNLETGVPSRFSGSGSGTDFTFTISSLQPEDIATYNCQQCENFPITFGQGTRLEIKRTVAAPDIQMTQSPSSMSVSVGDRVTITCHSSQDINSNIGWLQQKPGKSFKGLIYHGTNLDDGVPSRFSGSGSGTDYTLTISSLQPEDFATYYCVQYAQFPWTFGGGTKLEIKR
notes: as for B2
In the case of B10, the values for the EC50 in the test with EGFR [1] and in the test with ErbB3 were 726 nM and 11.1 nM, respectively.

B11: DVD330 (bispecific antibody)
VH: EVQLVESGGGLVQPGGSLRLSCAASGFTFSIYSMNWVRQAPGKGLEWVSYISSSSSTIYYADSVKGRFTISRDNAKNSLYLQMNSLRDEDTAVYYCARDRGDFDAFDIWGQGTMVTVSSASTKGPQVQLQESGPGLVKPSQTLSLTCTVSGYSISSDFAWNWIRQPPGKGLEWMGYISYSGNTRYQPSLKSRITISRDTSKNQFFLKLNSVTAADTATYYCVTAGRGFPYWGQGTLVTVSS
VL: DIQMTQSPSSLSASVGDRVTITCQASQDITNYLNWYQQKPGKAPKLLIYDASNLETGVPSRFSGSGSGTDFTFTISSLQPEDIATYNCQQCENFPITFGQGTRLEIKRTVAAPDIQMTQSPSSMSVSVGDRVTITCHSSQDINSNIGWLQQKPGKSFKGLIYHGTNLDDGVPSRFSGSGSGTDYTLTISSLQPEDFATYYCVQYAQFPWTFGGGTKLEIKR
notes: as for B9
Consider B11, for which the EC50 was 224 nM with EGFR [1] and 1.29 nM with ErbB3.
